First the molecules themselves.
B1: ID3547: enhancer fragment, SEQ ID NO: 13 (nucleic acid)
DNA: CGTTCCCCCTTAACAAAAGCCACCTCCTCCCTCCTGAAAGGCACCATTGGTCACCAAAACAAGTCCCCTTTGTCCTCCACCGCAGCTGGAGCCTGGGCCTTCCATCTCCTGGGGGCCAATAAAACCCCAGATCAGCCAATCCTCCCTCCCTGGCTCTGTCA
B2: ID0291: enhancer fragment, SEQ ID NO: 24 (nucleic acid)
DNA: CATTCTTTGCAGATAGGAAACAGTTTGCTATCTGAGAGACTGGCCAAAAACCTTACTTTCAAGTAAAATAGGGCTCTATTCATAAGCTCCTACATGTACACAAGTTACTCTTTATACTCCTTTCAGACAATGATAAGAATAGAAACTATTTAATTCAGGA
B3: ID0456: enhancer fragment, SEQ ID NO: 26 (nucleic acid)
DNA: ATCACAAAGTGGTTAGCATGCAGGGGAGTGCGCCGGTCCCCCGCCTGTATTTGCATGACAAAAGCGCCTGCCCAACGGCTCTCGGTGGCTTTGTTGAGAGCTGCAGCCTCGCTCAGGCTGAGCCTTGGGAATTGTTCCCCGACATTGGTTGTTCCTGGGC
B4: ID4310: enhancer fragment, SEQ ID NO: 17 (nucleic acid)
DNA: TTGTCCTGCCTTTGAGAACACTGGAAGGGCACTGAAGGCTGACCAGCATGCACCTCACCCCACCTCCTCTCTGTCTCATCCTCAGCCATCTAAGCGGGAGACTCATCAGGCTTAAATTCTCATTCTTATCCAAGATTCTTCTGCTTCAAATGAG
B5: ID3765: enhancer fragment, SEQ ID NO: 21 (nucleic acid)
DNA: B4 DNA
B6: ID3836: enhancer fragment, SEQ ID NO: 20 (nucleic acid)
DNA: TACCCTTCCAGGGGAGCAGTTTCCTGGCTGTGTCGTCAGATACTGTGGTTTACGCTGTTCCGGAGTCTGGAGGTCTGTGTGCCTTTGATCTCTTTCCCAACTAATTTGCACAGCTGCTGTGGAGGCCCTCATGAATGACCTCTTTCTTTCCTTTCT
B7: ID0663: enhancer fragment, SEQ ID NO: 11 (nucleic acid)
DNA: ATAAATTCCGATTAGCCAAGGAAGCTCTGAGTCTAAATACCAGCAAAGCTCAGCCCCTGCAAGTGGGGACGAATTATTTGAAAGGTCATCCTAGAGACACTGAACAAAGGGCCTCTAGCAGCT
modifications: listed as DNA, chemistry not given here
B8: ID1737: enhancer fragment, SEQ ID NO: 10 (nucleic acid)
DNA: CAACGTTTTTGGCAGATGCAGCTCTTTCTGAACAGTAAGTCATTGTTGAGTGACATGAATAGGACGAGAGCTACAGAAAATGAAGGTTTCAAAAGATTGTCTAAAACAAAAGTCCTTTCAGTCCCGTATTCAGAGTT
B9: ID4428: enhancer fragment, SEQ ID NO: 18 (nucleic acid)
DNA: TCTAAATGGAGATCCTCCCATAAAGGGAGTTCTGTTTGGGCTTCCCTTGGAAGTCCATTGAAAGCGTTTCACATTTCAATGCTTCTTTACATTCTCCTCTAGAATGAATCTGGAAGGGCCATTTCATTCCAGCCCTATCAGATTTACTACTTCCTCCTGT
B10: ID1244: enhancer fragment, SEQ ID NO: 25 (nucleic acid)
DNA: ACAGCAGCCAGAGGAAGTGGCTGTGTACAGAGAGCTTTTGTGAGAGAAGAGGGGGAGGGGGAAAGAGCAAAGAAAAAGAAGGAAAGAAGAGAGGGAAGAGGCCAGAGACAGAGAAGGCCAGAGCA
modifications: listed as DNA, chemistry not given here
B11: ID1176: enhancer fragment, SEQ ID NO: 22 (nucleic acid)
DNA: ACAAACTAAACACAGACATTTTCTCAATTAGTCATTTTCAGGTTTATTGCCTAAGATGCTAATTGAAATTCAGGGCAGGCAAAAATACATCATTGGCCTTTGTATATCTTTGAAAGGCCTTCTGATGGGACCTTGCTCCGTATAAAGGCTTCTCTTCTCT
B12: ID0885: enhancer fragment, SEQ ID NO: 14 (nucleic acid)
DNA: CAGCAAAGGCTGCACGCAATGGGGGAGGGGGAAGGAGGGAAGGATATTTCCTCCTTTTTAGATCAGTTTCTTTTCTGAGCACAAGTGCTTTCTGTGTCATCCTAACAATGTAAGAGCCCACTAAGTTTAGGACGCATAATACCGGCCTTTGTTCTACTCC
B13: ID3548: enhancer fragment, SEQ ID NO: 15 (nucleic acid)
DNA: TCCAAACACTCCCCTGCAACAGATGTACACACAGAGCCCATTGTTTTCTCTAGAAATGTAAACTGCACGTCACAGTTACTCCATACACACCACAAACAGACTCCCTTTGTTCTCAGGATATGTGTTGACACAAGAATATGTCATCCTCTCAGCTCCAGAC
B14: ID0785: enhancer fragment, SEQ ID NO: 19 (nucleic acid)
DNA: AAGAATGAACTGGGCCCAGCTGGGCATTTGCATCAAAGTGCCTCACCAGAGTTCCCAGCTGCTCTGGCAGAGTGCCCAGGCTTGCCCCAGAGCCCAAACAGAATGCTCTTTGAGATGCCTCTGGTTTTCA
modifications: listed as DNA, chemistry not given here
B15: ID1888: enhancer fragment, SEQ ID NO: 23 (nucleic acid)
DNA: GACCTTGCCTCTTTCTGGCCTGTGGCCTTTCTCCTCCCCCAGCTGCTGTCTGGCCGCCCCACCCCCAAGTCTCTGCCACAACCAAAGCTCCTTTGTTGCCTCCCCCTGCCCCGGGCCTCTCCACCTGCTGCTAGCTCAATCCCCTCTTTGTGTGGTTGGT
B16: ID3146: enhancer fragment, SEQ ID NO: 16 (nucleic acid)
DNA: TGAAAGAGATGGGTGTGTGGGAGTGGGGGAAGCTGAGCTCCAGGCAGACAGCACAGAGCCGCCTTGTCCAACCCAGCCAGGTGCCATGGCAACCAACAAAGGCCCCATTGTCCCGTGTCTGCTGGGCCTTCCTGAGGCTCTGGGGTCAGAGTCCCGGTT
B17: ID1322: enhancer fragment, SEQ ID NO: 27 (nucleic acid)
DNA: GGGCAACAAAGGATGCCATGCAAAGCAGCTCAGAACTTGAGTTGTTTCAACAGATGCTGTTTTATGTTTTGCCAAAGAATGGCCCCTTTTATTTCTGTCATGAATGCAGTCTTTCTTTCAGTTTCTAAATGTTTGCCAGTATTAACCCTAATCCTTATCT
B18: ID2706: enhancer fragment, SEQ ID NO: 12 (nucleic acid)
DNA: CCAATGCCAAAGCAGTTTACATTTTACAGATGCCATGGCAACCGTCAGGAAGTTACCCTGTATGGTCTAAGAGGGGGAGGAACCCTCAGTTCCGGGAATTGCCCGCCCCTTTCCCGGAAACTCATGAATAATCCACCC
B19: CSE006: clustered SOX dimer motif enhancer, SEQ ID NO: 53 (nucleic acid)
DNA: AGGAAGAAGCATGCTGGGTCATTTTTGCCTTGTTTCTAGCTGCATGAATTGAAAAGCCAGGCCCAGGTTCAATGCATCATTCTTGAAGCAGTGAACAAAATCCCTCTTTGTTCCCCAGTGAAACTTATCTCTGAAGAGCTGCACTACTTCCTGTGAGATATAGCCCTGCAGATGTGTCGTGGGAGACCCGCCCGGCTGCACTGCCTTCCATAAAAGTGCAAGAATGGGCACTTTGTACTGCTGGACTGAAAATGACACTCACTCTTCTGATCCCCACTGGGGTTACCAAGTGGGCAAAACTTCCTGCTTAGAGGAGGGGTCATAGACAGCAGGGGGAGTGTGTGATTTTGTTTTGTTCCTTTGTGAATTTGTTTAGCTATTTATAGAGCTAAAGGAGAAAGCAAACGGGCACAATGTAGCACAGTGTTTTTCAAAGTGTATTCCATGGAACCCTTTCGTGGGTTGCAGACCCCAGGGGTGGAGGCAGAGGATGGGGTGGTGACAGCAGCAGGTGCTGTCCAGGGCCTTCTGTCT

For this series, the system named is GSC7 cells. Description: Nano-Glo Dual-Luciferase Reporter (Nanoglo DLR) assay of enhancer activity, fold change to mCMV. The note with it: expression fold change of the individual enhancer compared to mCMV. In kind it is cell-based, human. The essentials: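 160 bp enhancer fragments in NanoLuc reporter plasmids were co-transfected 1:10 with PGK-firefly luciferase into GSC7 cells using Lipofectamine LTX/Plus and read two days later. NanoLuc signal was normalised to firefly, then expressed as fold change to the empty mCMV vector.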
In general terms: Reporter assays use an easily measured gene product as a stand-in for the process of interest.
With B1, the “Fold change (Median)” value was 53.2 fold.

With B2, the “Fold change (Median)” value is listed as 29.0 fold.

With B3, the “Fold change (Median)” value was 27.2 fold.

As for B4, the “Fold change (Median)” value was found to be 36.3 fold.

B5: the “Fold change (Median)” value is on record as 31.7 fold.

For the molecule B6, the “Fold change (Median)” value is 33.4 fold.

On to B7, for which the “Fold change (Median)” value is recorded as 59.1 fold.

For the molecule B8, the “Fold change (Median)” value was determined as 77.1 fold.

Turning to B9, the “Fold change (Median)” value was 36.2 fold.

For the molecule B10, the “Fold change (Median)” value came to 27.8 fold.

For the molecule B11, the “Fold change (Median)” value is recorded as 31.3 fold.

For B12, the “Fold change (Median)” value came to 42.6 fold.

For the molecule B13, the “Fold change (Median)” value is 40.0 fold.

For B14, the “Fold change (Median)” value is reported as 34.3 fold.

For B15, the “Fold change (Median)” value was 31.1 fold.

Take B16: the “Fold change (Median)” value is given as 37.2 fold.

For the molecule B17, the “Fold change (Median)” value was 26.7 fold.

Regarding B18, the “Fold change (Median)” value is 57.2 fold.

Turning to B19, the “Fold change (Median)” value stood at 524.3 fold.

The record behind these values is US20260241035A1, “FUNCTIONAL NUCLEIC ACID MOLECULE AND METHOD” (THE UNIVERSITY COURT OF THE UNIVERSITY OF EDINBURGH, priority 2022, published 2026).
